Here are results for eleven molecules from patent US20140120095A1 (Boehringer Ingelheim, published 2014).

Broadly, the EC50 is the concentration giving half of the maximal effect. The term koff denotes the rate constant with which the complex falls apart. As usually defined, the Kd is the free concentration of one partner at which half of the binding sites on the other are occupied at equilibrium, for simple one-to-one binding. What is called kon is the rate constant with which the complex forms. For orientation: EC50 (read off the curve) means the concentration at which the effect is half-maximal.

Changes are numbered by the printed parent chain.

First the molecules themselves.
T1: cynomolgus DLL4 overexpressed on cells (cynomolgus, UniProt Q9NR61 27-685 (human entry))
T1 construct: also called cyno DII4; cDLL4
T1 chain: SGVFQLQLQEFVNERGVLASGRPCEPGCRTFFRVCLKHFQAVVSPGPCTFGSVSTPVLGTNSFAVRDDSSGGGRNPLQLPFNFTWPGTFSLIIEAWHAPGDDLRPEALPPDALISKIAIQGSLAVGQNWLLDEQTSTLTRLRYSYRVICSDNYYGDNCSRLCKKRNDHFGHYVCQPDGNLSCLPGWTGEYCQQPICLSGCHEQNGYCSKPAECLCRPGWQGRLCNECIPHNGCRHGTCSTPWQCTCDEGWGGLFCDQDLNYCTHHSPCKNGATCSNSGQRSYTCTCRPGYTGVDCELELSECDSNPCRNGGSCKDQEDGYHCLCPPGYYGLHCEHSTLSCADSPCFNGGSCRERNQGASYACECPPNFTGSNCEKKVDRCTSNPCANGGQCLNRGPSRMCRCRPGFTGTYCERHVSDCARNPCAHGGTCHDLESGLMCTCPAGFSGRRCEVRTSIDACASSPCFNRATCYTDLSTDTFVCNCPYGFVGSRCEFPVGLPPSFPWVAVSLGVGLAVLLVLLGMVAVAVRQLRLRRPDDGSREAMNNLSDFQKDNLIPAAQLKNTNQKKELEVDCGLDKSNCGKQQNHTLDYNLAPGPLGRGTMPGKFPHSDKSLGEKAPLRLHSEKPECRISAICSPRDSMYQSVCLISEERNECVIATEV

B1: DLLBII56A09 (VHH)
VHH: EVQLVESGGGLVQPGGSLRLSCAASGFTFDDYAIGWFRQAPGKEPEGISCISSSGGITYYADSVKGRFTTSRDNAKNTVYLQMNSLKPEDTAVYYCATPGIAACRGIHYTGQGTQVTVSS
notes: also called 56A9; DLLBII56A9
B2: DLLBII101G08 (VHH)
VHH: EVQLVESGGGLVQAGGSLRLSCAASGRTFSSYAMAWFRQAPGKEREFVAAIRWSGGTAYYADSVQGRFTISRDNAKNTVYLQMNSLKPEDTAVYYCANRAADTRLGPYEYDYWGQGTQVTVSS
notes: also called 101G8; DLLBII101G8
B3: DLLBII115A05 (VHH)
VHH: EVQLVESGGGLVQPGGSLRLSCAASGFTFGSYDMSWVRRSPGKGPEWVSSINSGGGSTYYADFVKGRFTISRDNAKNTLYLQMNSLKPEDTAVYYCAADRYIRARQGDYWGAYEYDYWGQGTQVTVSS
notes: also called 115A5; DLLBII115A5
B4: DLLBII101G08 (VHH, not shown: small tags and cut ends)
VHH: B2 VHH
notes: parent VHH; also called 101G08 (wt); 101G8
B5: DLLBII129B05 (VHH, not shown: small tags and cut ends)
VHH: B2 VHH with F37Y, F47Y, A101P, G106A, Y112H
B6: DLLBII129E11 (VHH, not shown: small tags and cut ends)
VHH: B2 VHH with F37Y, F47Y, A101P, G106R, E109L
B7: DLLBII129D08 (VHH, not shown: small tags and cut ends)
VHH: B2 VHH with F37Y, F47Y, A101P, G106E, E109L
B8: DLLBII133G05 (VHH, not shown: small tags and cut ends)
VHH: B3 VHH with S50A, A61T, F63Y, R103W, D108E, E114A
B9: DLLBII136C07 (VHH, not shown: small tags and cut ends)
VHH: B3 VHH with F63Y, R103W, D108E
B10: DLLBII133A09 (VHH, not shown: small tags and cut ends)
VHH: B3 VHH with S50A, F63Y, R103W, D108E, E114A
B11: DLLBII015 (VHH, not shown: small tags and cut ends)
VHH: B3 VHH with F29I, S50A, F63Y, R103W, D108E, E114A

T3 sequence (Q9JI71 27-532): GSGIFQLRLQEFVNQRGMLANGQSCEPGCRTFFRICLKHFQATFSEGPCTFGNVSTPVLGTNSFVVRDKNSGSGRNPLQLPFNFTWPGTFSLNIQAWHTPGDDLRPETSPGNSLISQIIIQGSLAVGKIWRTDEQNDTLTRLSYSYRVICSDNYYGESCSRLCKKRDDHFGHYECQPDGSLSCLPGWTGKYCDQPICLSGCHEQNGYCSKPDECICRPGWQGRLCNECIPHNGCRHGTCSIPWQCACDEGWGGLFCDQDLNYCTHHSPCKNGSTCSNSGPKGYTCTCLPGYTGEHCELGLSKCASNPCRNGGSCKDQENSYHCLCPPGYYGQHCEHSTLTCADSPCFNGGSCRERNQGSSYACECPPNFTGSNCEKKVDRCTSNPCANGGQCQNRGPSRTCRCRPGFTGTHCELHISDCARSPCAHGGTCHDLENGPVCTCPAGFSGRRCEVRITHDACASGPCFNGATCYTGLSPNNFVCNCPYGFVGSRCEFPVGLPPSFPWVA

One assay concerns the target human DLL4 overexpressed on cells (human, UniProt Q9NR61 27-685). The experiment in a line: cell-based or functional assay.
With B1, the “IC50, DLL4/Notch1 reporter assay” value stood at 540 nM.
The same measure, in the same setting: with B2 the figure was 2760 nM.
Turning to B3, the “IC50, DLL4/Notch1 reporter assay” value amounted to 1740 nM.

The target in a further assay is T2, recombinant human DLL4 (human, UniProt Q9NR61 25-522).
T2 construct: also called rhDLL4; hDLL4
Put plainly: binding ELISA, coated rhDLL4. As to the method:
(§1) In order to determine cross-reactivity to mouse DII4 a binding ELISA is performed. […] Wells are blocked with a casein solution (1% in PBS). VHHs are applied as dilution series and binding is detected using a mouse anti-myc (Roche) and an anti-mouse-AP conjugate (Sigma, St Louis, Mo., USA) (FIG. 7 A-H). As reference, binding to human DII4 is measured.
Regarding B1, the EC50 was determined as 3.6 nM.
On the same count and under the same terms, for B2 the value was 8.9 nM.
Turning to B3, the EC50 stood at 5 nM.

Another assay concerns the target T3, recombinant mouse DLL4 (mouse, UniProt Q9JI71 27-532).
T3 construct: extracellular domain; also called rmDLL4; mDLL4
Put plainly: binding ELISA, coated rmDLL4. As to the method: as §1
(In an ELISA, binding on a coated surface is turned into a signal by an enzyme label.)
On to B1, for which the EC50 was determined as 6.3 nM.
The same measure, in the same setting: for B2 the value was 53.9 nM.
The same measure, in the same setting: for B3 the value was 33.4 nM.

Another assay has as its target T2, recombinant human DLL4. The experiment in a line: Biacore, VHH on chip, 200 nM DLL4 sample injected.
As for B1, the “Binding (RU)” value is 281 RU and the koff is 0.00095 s⁻¹.
On the same counts, the results for B2 are 373 RU and 0.002 s⁻¹.
For B3, in that order: 324 RU and 0.0035 s⁻¹.

In a further assay the target is hDLL4.3 (human). The experiment in a line: Biacore, VHH on chip, 200 nM DLL4 sample injected. On the technique in general: In SPR one partner is held on a chip, and binding of the other changes the refractive index at the surface.
As for B1, the “Binding (RU)” value is 125 RU and the koff amounted to 0.00074 s⁻¹.
On the same counts, the results for B2 are 198 RU and 0.00465 s⁻¹.
On the same counts, the results for B3 are 137 RU and 0.0035 s⁻¹.

A further assay has as its target hDLL4.5 (human). Put plainly: Biacore, VHH on chip, 200 nM DLL4 sample injected.
For B1, the “Binding (RU)” value worked out at 143 RU and the dissociation rate constant (koff) amounted to 0.0012 s⁻¹.
On the same counts, the results for B2 are 266 RU and 0.00219 s⁻¹.
For the molecule B3, the “Binding (RU)” value stood at 162 RU and the koff stood at 0.0042 s⁻¹.

Another assay deals with hDLL4.6 (human). The experiment in a line: Biacore, VHH on chip, 200 nM DLL4 sample injected.
With B1, the “Binding (RU)” value was determined as 136 RU and the koff amounted to 0.0011 s⁻¹.
On the same counts, the results for B2 are 229 RU and 0.0022 s⁻¹.
B3: the “Binding (RU)” value turned out to be 152 RU and the koff was determined as 0.0041 s⁻¹.

Another assay concerns the target mDLL4.10 (mouse). Put plainly: Biacore, VHH on chip, 200 nM DLL4 sample injected.
With B1, the “Binding (RU)” value amounted to 141 RU and the koff is 0.0011 s⁻¹.
For B2, in that order: 189 RU and 0.00514 s⁻¹.
For B3, in that order: 121 RU and 0.0038 s⁻¹.

For another assay, the target named is mDLL4.11 (mouse). The experiment in a line: Biacore, VHH on chip, 200 nM DLL4 sample injected.
Consider B1, for which the “Binding (RU)” value is 132 RU and the koff came to 0.0016 s⁻¹.
On to B2, for which the “Binding (RU)” value was 210 RU and the koff is 0.00616 s⁻¹.
On the same counts, the results for B3 are 121 RU and 0.0066 s⁻¹.

The target in a further assay is mDLL4.12 (mouse). Put plainly: Biacore, VHH on chip, 200 nM DLL4 sample injected.
Consider B1, for which the “Binding (RU)” value was found to be 161 RU and the koff was determined as 0.0013 s⁻¹.
For B2, in that order: 244 RU and 0.00452 s⁻¹.
On the same counts, the results for B3 are 152 RU and 0.0031 s⁻¹.

The next assay addresses T3, recombinant mouse DLL4. The experiment in a line: Biacore, VHH on chip, 200 nM DLL4 sample injected.
As for B1, the “Binding (RU)” value worked out at 389 RU and the koff is 0.0019 s⁻¹.
On the same counts, the results for B2 are 502 RU and 0.006 s⁻¹.
On the same counts, the results for B3 are 344 RU and 0.0065 s⁻¹.

The target in a further assay is T2, recombinant human DLL4. Put plainly: SPR Biacore T100, hDLL4 on chip, VHH/Fab injected.
B1: the Kd was 5.6 nM, the koff stood at 0.00093 s⁻¹ and the kon is 170000 M⁻¹ s⁻¹.
For B2, in that order: 52 nM, 0.0022 s⁻¹ and 43000 M⁻¹ s⁻¹.
Take B3: the Kd came to 25 nM, the koff turned out to be 0.0039 s⁻¹ and the kon is 150000 M⁻¹ s⁻¹.

The next assay deals with T1, cynomolgus DLL4 overexpressed on cells. The experiment in a line: FACS titration on HEK293-cDLL4 cells, MCF. In short, it runs like this:
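HEK293 cells overexpressing DLL4 (transient or stable) were incubated with VHH titrations for 30 min on ice. After washing, binding was detected with anti-c-myc-Alexa647 by flow cytometry, and the mean MCF was used to calculate EC50.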
Turning to B1, the “EC50 (read off the curve)” value is about 3 nM.
The same measure, in the same setting: with B2 the figure was about 9 nM.
The same measure, in the same setting: for B3 the value was about 4 nM.

The target of a further assay is T4, recombinant human DLL4 (C-terminally His-tagged extracellular domain, R&D Systems) (human, UniProt Q9NR61 25-522, biotinylated in the competition ELISA).
T4 construct: also called rhDLL4; hDLL4
The experiment in a line: binding ELISA on recombinant human DLL4, OD 450 nm.
On to B4, for which the “EC50 (read off the curve)” value was about 4 nM.
The same measure, in the same setting: with B5 the figure was about 0.7 nM.
The same measure, in the same setting: for B6 the value was about 0.7 nM; for B7, about 0.7 nM.

Another assay has as its target T5, human Jagged-1 (Alexis) (human, UniProt P78504 34-1067, limits assumed).
T5 construct: also called hJag-1; hJAG1
Put plainly: binding ELISA on coated human Jagged-1 (Example 5.8, Example 7), OD 405 nm.
On to B4, for which the binding result is “no binding (tested: log[M] -6.1 (about 8e-7 M))”.
Turning to B5, the binding result was “no binding (tested: log[M] -6.1 (about 8e-7 M))”.
The same measure, in the same setting: with B6 the entry was “no binding (tested: log[M] -6.1 (about 8e-7 M))”; with B7, “no binding (tested: log[M] -6.1 (about 8e-7 M))”.

The next assay deals with T5, human Jagged-1 (Alexis). Described as above. The source holds these as a separate data set.
Consider B8, for which the binding result is “no binding (tested: log[M] -6.1 (about 8e-7 M))”.
On to B9, for which the binding result is “no binding (tested: log[M] -6.1 (about 8e-7 M))”.
Still for that read-out and setting: with B10 the entry was “no binding (tested: log[M] -6.1 (about 8e-7 M))”; with B11, “no binding (tested: log[M] -6.1 (about 8e-7 M))”.
